{
  "source": "patent US20220125824A1",
  "target": "mCherry-MazF (E. coli MazF ribonuclease fused to the C terminus of mCherry) (E. coli) (UniProt P0AE70)",
  "sequence (P0AE70 whole entry, the tested form may be a part)": "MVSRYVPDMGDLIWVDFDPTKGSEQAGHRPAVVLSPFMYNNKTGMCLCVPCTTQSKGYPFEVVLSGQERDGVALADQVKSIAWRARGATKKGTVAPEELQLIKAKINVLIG",
  "test": "cell-based or functional assay",
  "data": [
    {"substance": "E. coli antitoxin MazE (from UniProt P0AE72 1-82)", "values": [
      {"measurement": "mortality (MTT assay) of lung cancer cells co-infected with MazF and MazE viruses at a 1:0.5 MOI ratio", "value": 36, "unit": "%"},
      {"measurement": "yield of MazF-encoding adenovirus in HEK293 packaging cells that constitutively express MazE, compared with parental HEK293 cells (orders of magnitude)", "value": 2}
    ]}
  ]
}
